Common to all, as to test: Km for hydrolysis of fluorogenic substrate Arg2-2NA
Substrate in data set [1]: N=C(N)NCCC[C@H](NC(=O)[C@@H](N)CCCNC(=N)N)C(=O)Nc1ccc2ccccc2c1
It is filed as biochemical. The conditions noted are these: other: pH 7.4 (20 mM Tris–HCl buffer), 25 °C, initial reaction rates.

Substrate in data set [2]: N=C(N)NCCC[C@H](NC(=O)[C@@H](N)CCCNC(=N)N)C(=O)Nc1ccc2ccccc2c1
It is filed as biochemical, yeast (Saccharomyces cerevisiae). The conditions noted are these: other: pH 7.4 (20 mM Tris–HCl buffer), 25 °C, initial reaction rates, yeast DPP III.

Substrate in data set [3]: N=C(N)NCCC[C@H](NC(=O)[C@@H](N)CCCNC(=N)N)C(=O)Nc1ccc2ccccc2c1
It is filed as biochemical, Bacteroides thetaiotaomicron. The conditions noted are these: other: pH 7.4 (20 mM Tris–HCl buffer), 25 °C, initial reaction rates, B. thetaiotaomicron DPP III.

B1: human DPP III (Homo sapiens) (protein)
chain: ADTQYILPNDIGVSSLDCREAFRLLSPTERLYAYHLSRAAWYGGLAVLLQTSPEAPYIYALLSRLFRAQDPDQLRQHALAEGLTEEEYQAFLVYAAGVYSNMGNYKSFGDTKFVPNLPKEKLERVILGSEAAQQHPEEVRGLWQTCGELMFSLEPRLRHLGLGKEGITTYFSGNCTMEDAKLAQDFLDSQNLSAYNTRLFKEVDGEGKPYYEVRLASVLGSEPSLDSEVTSKLKSYEFRGSPFQVTRGDYAPILQKVVEQLEKAKAYAANSHQGQMLAQYIESFTQGSIEAHKRGSRFWIQDKGPIVESYIGFIESYRDPFGSRGEFEGFVAVVNKAMSAKFERLVASAEQLLKELPWPPTFEKDKFLTPDFTSLDVLTFAGSGIPAGINIPNYDDLRQTEGFKNVSLGNVLAVAYATQREKLTFLEEDDKDLYILWKGPSFDVQVGLHELLGHGSGKLFVQDEKGAFNFDQETVINPETGEQIQSWYRSGETWDSKFSTIASSYEECRAESVGLYLCLHPQVLEIFGFEGADAEDVIYVNWLNMVRAGLLALEFYTPEAFNWRQAHMQARFVILRVLLEAGEGLVTITPTTGSDGRPDARVRLDRSKIRSVGKPALERFLRRLQVLKSTGDVAGGRALYEGYATVTDAPPECFLTLRDTVLLRKESRKLIVQPNTRLEGSDVQLLEYEASAAGLIRSFSERFPEDGPELEEILTQLATADARFWKGPSEAPSGQA
By Km is commonly meant the concentration of substrate that gives half-maximal velocity. As for B1, the Km in data set [1] (human DPP III) is 6.0 µM.

B2: Porphyromonas gingivalis DPP III (Porphyromonas gingivalis W83) (protein)
chain: MTKETTQHRSGERIARFADIEVLSYRADLFGTLTPKQRMLCYHLSEAALRGRDITTIQNCRYNLWVRSLMERIYTHLSKSERTDDFALLEEYLFCIWFANGIHHHYSGAKFIARFSPGFLRAALREAGVELEPEEQVLLERVLYDTDFLPKQTEQSGEEDIIKASSVNFYAPGITRAEAESHYKNLIEALPENEKSCPPSFGLNTRLIRSTSGELKDEVCCIDGLYGPAIEAVVASLEAAIPYTENEEQAACIRLLCDYYRTGDIRLYDRFCIRWVENNRTRIDFINGFTEVYADPIGIHGSWEGLVHMQDEEAGRRTRIISEHAGWFEAHSPIDARFRKKNPHGISATVVNVLTIAGDSYPATPIGINLPNADWIRAEHGSKSVTIDNITDAYNHAARGTGLYEEFIPDEEVRRHVELHADLTDSLHTDLHECLGHGSGQLLPGVPGDALGEHASTLEETRADLFALYFLADPKMIELGLLTDPDAYKANYYKYMLNGLMTQLVRIKRGEEIEEAHMRNRALIARYVLEHAERPGAMSLVCEEGKTALVIKDYEAVRAIIAGLLTEVQRIKSEGDYTAGKALVERYAVHVDPLLHEEVLTRYAKLDIAPYKGFVNPRLRPVYNSEGRLTDATIEYTEGYAEQMLRYSAEYSFLPTDSPLLQEARRLRSHLRRAMDGVLSASMREKGLHYGINFGVTREHLLRLARTADASAPLADYLWRRDVRETKILATMIFPAEELTHEQATRLLREADNVELREQLTANLLERMPEAIRSIGRWIESKETTPDMMTGVLTLAARLFTRGIFPEDVPAEKLLTLAILHLSDEEQKAELRRASALLLKRYGRGSAERTKKVLCLLPESSQDTAPVLYELCEDIRFELDFYPKDE
B2: the Km in data set [1] (Porphyromonas gingivalis DPP III) amounted to 0.3 µM.

B3: Physcomitrella patens DPP III (Physcomitrium patens) (protein)
chain: MEGFQEEFSLGECLDVLTAAGLRTGDVKKRHLVHADGDYHRAVHVWLFVESTQELVLQKRADCKDSWPGLWDISSAGHISAGDTSLLTARRELQEELGITLPADAFEFLFDYLQECVINGGKYINNEYNDVYLVTLVDHIPVEAFTLQETEVSAVKYMKWQDYEDAVRKEDSSYVPCDVDGGYSALFSALRRRYEVDTSAKLEELQMHINRYVPVEIHGETTGLSKGDLLALSDTIRAAKLLDRIFLEQEWATNPALKDSLQAASGKSELDRLKFAYYLINKSPWSILDENDAFLTTADSAIQIAEGAVDESVTWGGKVRYRAAFPVEKAPGANFYPVDMDKEEFQAWKDGLDKGQQADATSFFTTIRRSGDIHDADGAKVHDLKIVPYSKEYATILKEASYLLHKAGDSAENPSLKRLLKAKADAFLSNDYYESDIAWMELDSPLDVTIGPYETYEDGLFGYKATFEAFIGIRDDEATQRLKLFSHNLQEMEDNLPMDDEYKSKTVTFSPIRVIQLLYNSGDVKGPQTVAFNLPNDDRIVKERGTAMVMLKNISQAKFDYILLPIANVCVEASQRGAVDFDSFFTHTICHECCHGIGPHNIVTPDGRASTVRLELQEVYSAIEEAKADIVGLWALHFLVDKGLLPRSLENTMYVSFLAGCFRSIRFGLEEAHGKGQALQFNFILEKGGFSYHPDGTFSVDYTKVRQCVEDLSRLILTIEAKGDKAGAEALLAKYAALTPQLQQSFDALQDVQVPVDIFPTFKLLDDIKL
For the protein B3, the Michaelis constant (Km) in data set [1] (Physcomitrella patens DPP III) was found to be 23.8 µM.

B4: Caldithrix abyssi DPP III (Caldithrix abyssi DSM 13497) (protein)
chain: MKRILLVLLTLVFLGAIACQKKEENKTEMVKLKRMIAQFAPTEIKYDHSLLDERKQKVVENLYRAAKIMDEIFLDQVYSKNFEIREQLRASSDPLDQLRLEYFTIMFGPFDRLNHDKPFIGNTPKPKGANFYPPDMTREEFENWLKAHPEDEAAFTSEFTVIRRQDGKLVAIPYSEYYKEYLTRAADYLKKAAEFADNPSLKKYLQLRAEAFLNNDYYESDLAWMDLNDHTIEVVIGPYEVYEDKLFNYKAAFEAFITLRDPVESAKLKKFVGYLDEMEKNLPIPDAYKNFNRGSESPMVVVQEVFSAGDTKAGVQTLAFNLPNDERVREAKGSKKVMLKNIHEAKFDKLLKPIAEKVLFAEQLPLVTFEGFFNHTLMHEISHGLGPGKIVLNGRQTEVKKELKETYSSIEECKADVLGMYNNLFMIEKGVYPPEFEKQIYVTFLAGIFRTIRFGINEAHGAGNAVIFNYLLEKGAYQFDPAAHRVKVNFEKIKDGVRDLANKVLTIQAQGDYMAAKNLLETYAVESEPIMIMRARLQELPVDIKPIFQIEKELGNSN
As to B4, the Km in data set [1] (Caldithrix abyssi DPP III) came to 15.9 µM.

B5: yeast DPP III (Saccharomyces cerevisiae S288C) (protein)
chain: MSHFFADHDAPLSMLSVKTEYFPQLTDKEQKYAHFMSKASHAGSRVVMRQVSHESEPIFDLILAIHSKLNGKYPEDDITQKQQTGLYLEYVSQFLSNLGNFKSFGDTKFIPRCEVKFFKQLLELAKINPCSSPLTLSPVDVNHEFTSHHLFSTINELIDIGIYHVEEKAALLGFPSQGYTSAYYLGLPVTPEDMALLKEQLFAELAILPENTRINKVGENSFQIWVASENVKNQITETYPSGQITLSNAVTKVEFIFGDHSREMRLVASYLKEAQKFAANDTQKAMLQEYINHFVTGSSQAHKEAQKLWVKDISPVIETNIGFIETYREPSGIIGEFESLVAIQNKERTAKFSSLVNNAEEFISLLPWSKDYEKPIFNPPDFTSLEVLTFTGSGIPAGINIPNYDDVRLKIGFKNVSLGNILSAAAKSSSKHPPSFISQEDRPIFEKYQSDSFEVQVGIHELLGHGSGKLLTEFTDGFNFDKENPPLGLDGKPVSTYYKVGETWGSKFGQLAGPFEECRAEVIAMFLLTNKKILDIFGFHDVESQDKVIYAGYLQMARAGLLALEYWNPKTGKWGQPHMQARFSIMKTFMKHSTDKNFLKLEMNSTNDDFAIKLDKSLIKTAGHECVKDYLKHLHVYKCSGDVEQGSKYFIDRSTVTPDLASLRDIVLSKRLPRRQFIQSNSYIDDNNKVTLKEYDETPQGMLQSFLDREL
With B5, the Km in data set [2] amounted to 12 µM.

B6: B. thetaiotaomicron DPP III (Bacteroides thetaiotaomicron VPI-5482) (protein)
chain: MAVTATILASCGGAKTTTAEADKFDYTVEQFADLQILRYKVPEFETLTLKQKELVYYLTQAALEGRDILFDQNGKYNLRIRRMLEAVYTNYKGDKSAPDFKNMEVYLKRVWFSNGIHHHYGMEKFVPGFSQDFLKQAVLGTDAQLLPLSEGQTAEQLCDELFPVMFDPAILAKRVNQADGEDLVLTSACNYYDGVTQQEAESFYGAMKDPKDETPVSYGLNSRLVKEDGKIQEKVWKVGGLYTQAIEKIVYWLKKAETVAENDAQKAVISKLIQFYETGSLKDFDEYAILWVKDLDSRIDFVNGFTESYGDPLGVKASWESLVNFKDLDATHRTEIISSNAQWFEDHSPVDKSFKKEKVKGVSAKVITAAILAGDLYPATAIGINLPNANWIRAHHGSKSVTIGNITDAYNKAAHGNGFNEEFVCNDEERQRIDQYGDLTGELHTDLHECLGHGSGKLLPGVDPDALKAYGSTIEEARADLFGLYYVADPKLVELKLVPDAEAYKAEYYTFLMNGLMTQLVRIEPGNNIEEAHMRNRQLIARWVFEKGAPDKVVEMVKKDGKTYVVVNDYEKVRQLFGELLAEIQRIKSTGDFEGARTLVENYAVKVDPALHAEVLARYKKLNLAPYKGFINPVYELVTDKDGNITDVTVSYNEDYVEQMLRYSKDYSPLPSVNN
Turning to B6, in data set [3], the Km is 0.8 µM.

For the origin of these results see publication PMC9079729, “Conservation of the conformational dynamics and ligand binding within M49 enzyme family” (RSC Advances, 2018).
